Measured values from PMC3288515.
Where two headings read alike, the source gives them in different places.

B1: κE3' PU.1-STAT5 probe (dsDNA)
DNA 1: CTTTGAGGAACTGAAAACAGAACCT
DNA 2: AGGTTCTGTTTTCAGTTCCTCAAAG
B2: SV40 PU.1 probe (dsDNA)
DNA 1: TGAAATAACCTCTGAAAGAGGAACTTGGTTAGGTA
DNA 2: TACCTAACCAAGTTCCTCTTTCAGAGGTTATTTCA

What was measured:
Experiment in all cases: EMSA
[1] = biological target: T1, STAT5 (STAT5a cDNA used for the retroviral construct) (UniProt P42230 1-793)
[2] = biological target: T2, PU.1 (UniProt P17433 1-272)
[3] = biological target: T2, PU.1; remark: listed apart in the source
[4] = biological target: T1, STAT5 (STAT5a cDNA used for the …); remark: listed apart in the source

T1 sequence (P42230 whole entry): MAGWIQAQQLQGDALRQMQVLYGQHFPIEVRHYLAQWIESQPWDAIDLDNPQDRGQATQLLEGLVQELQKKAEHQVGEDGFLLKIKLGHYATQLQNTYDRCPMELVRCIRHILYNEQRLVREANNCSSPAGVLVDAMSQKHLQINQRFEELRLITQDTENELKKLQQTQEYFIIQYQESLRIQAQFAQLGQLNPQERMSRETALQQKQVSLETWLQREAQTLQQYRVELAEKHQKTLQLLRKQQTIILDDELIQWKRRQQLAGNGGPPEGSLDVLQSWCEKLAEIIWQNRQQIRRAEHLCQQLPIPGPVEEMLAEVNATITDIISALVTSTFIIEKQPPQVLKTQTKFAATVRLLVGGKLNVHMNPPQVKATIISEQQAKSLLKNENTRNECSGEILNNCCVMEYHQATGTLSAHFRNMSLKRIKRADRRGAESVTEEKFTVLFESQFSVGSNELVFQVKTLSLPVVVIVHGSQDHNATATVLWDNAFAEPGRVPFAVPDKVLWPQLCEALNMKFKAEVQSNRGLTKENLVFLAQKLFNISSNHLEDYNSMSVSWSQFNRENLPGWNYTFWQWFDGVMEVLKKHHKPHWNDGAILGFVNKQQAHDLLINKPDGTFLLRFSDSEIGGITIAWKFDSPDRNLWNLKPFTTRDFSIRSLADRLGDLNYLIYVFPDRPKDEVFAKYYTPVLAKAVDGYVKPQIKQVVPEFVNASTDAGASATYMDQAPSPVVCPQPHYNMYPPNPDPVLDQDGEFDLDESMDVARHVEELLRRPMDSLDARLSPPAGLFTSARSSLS

Binder | binding result [1] | binding result [2] | binding result [3] | binding result [4]
B1 | binds | binds | – | –
B2 | – | – | binds | no binding
